Holding throughout (assay): SPR; KD relative to WT C2;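 note: biacore SPR at 37 °C, anti-C2 mAbs captured on an anti-human IgG chip, alanine or serine C2 surface mutants tested, KD from 1:1 fit compared with wild-type C2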
In general terms: In SPR one partner is held on a chip, and binding of the other changes the refractive index at the surface.

The target in one assay is T1, human C2 A444S (human, UniProt P06681 21-752).
T1 sequence: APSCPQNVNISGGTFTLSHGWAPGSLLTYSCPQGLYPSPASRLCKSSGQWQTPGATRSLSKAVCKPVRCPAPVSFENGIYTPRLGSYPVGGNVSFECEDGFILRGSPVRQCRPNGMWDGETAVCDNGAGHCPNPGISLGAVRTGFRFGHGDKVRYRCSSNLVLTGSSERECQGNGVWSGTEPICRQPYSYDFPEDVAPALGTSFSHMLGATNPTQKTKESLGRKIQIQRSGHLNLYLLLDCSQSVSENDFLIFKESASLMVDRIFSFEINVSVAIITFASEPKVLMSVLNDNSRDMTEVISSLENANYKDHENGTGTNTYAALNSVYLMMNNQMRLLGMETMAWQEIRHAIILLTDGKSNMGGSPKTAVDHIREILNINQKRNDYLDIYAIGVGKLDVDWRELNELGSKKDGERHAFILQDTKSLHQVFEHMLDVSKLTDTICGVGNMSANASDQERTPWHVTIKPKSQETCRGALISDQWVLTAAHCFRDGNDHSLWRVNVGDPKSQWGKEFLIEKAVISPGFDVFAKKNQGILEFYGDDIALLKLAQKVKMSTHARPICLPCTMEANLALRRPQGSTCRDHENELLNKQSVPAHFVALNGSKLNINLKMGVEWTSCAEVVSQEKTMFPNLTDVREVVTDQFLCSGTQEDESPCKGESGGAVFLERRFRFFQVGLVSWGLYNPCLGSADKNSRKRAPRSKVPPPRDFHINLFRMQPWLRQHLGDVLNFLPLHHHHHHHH

For another assay, the target named is T2, human C2 E686A (human, UniProt P06681 21-752).
T2 sequence: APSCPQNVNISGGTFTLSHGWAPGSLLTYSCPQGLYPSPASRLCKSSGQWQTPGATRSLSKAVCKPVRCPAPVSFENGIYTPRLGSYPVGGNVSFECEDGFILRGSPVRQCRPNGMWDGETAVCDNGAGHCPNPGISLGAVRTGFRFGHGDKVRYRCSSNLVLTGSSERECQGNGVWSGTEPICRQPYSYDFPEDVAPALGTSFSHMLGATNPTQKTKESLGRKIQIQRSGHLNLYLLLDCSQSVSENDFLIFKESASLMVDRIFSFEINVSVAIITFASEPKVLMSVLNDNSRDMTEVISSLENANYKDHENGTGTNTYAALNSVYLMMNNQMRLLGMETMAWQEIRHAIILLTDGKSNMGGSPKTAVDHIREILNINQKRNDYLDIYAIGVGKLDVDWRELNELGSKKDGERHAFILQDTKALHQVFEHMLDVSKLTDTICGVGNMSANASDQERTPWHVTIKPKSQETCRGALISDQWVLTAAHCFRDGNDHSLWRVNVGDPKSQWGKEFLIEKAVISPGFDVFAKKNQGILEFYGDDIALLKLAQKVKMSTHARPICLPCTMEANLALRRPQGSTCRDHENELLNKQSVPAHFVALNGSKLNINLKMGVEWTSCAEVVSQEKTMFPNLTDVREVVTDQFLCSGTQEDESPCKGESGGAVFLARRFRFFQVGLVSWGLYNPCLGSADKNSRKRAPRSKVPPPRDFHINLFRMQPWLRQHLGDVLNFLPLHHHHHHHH

Another assay has as its target T3, human C2 R434A (human, UniProt P06681 21-752).
T3 sequence: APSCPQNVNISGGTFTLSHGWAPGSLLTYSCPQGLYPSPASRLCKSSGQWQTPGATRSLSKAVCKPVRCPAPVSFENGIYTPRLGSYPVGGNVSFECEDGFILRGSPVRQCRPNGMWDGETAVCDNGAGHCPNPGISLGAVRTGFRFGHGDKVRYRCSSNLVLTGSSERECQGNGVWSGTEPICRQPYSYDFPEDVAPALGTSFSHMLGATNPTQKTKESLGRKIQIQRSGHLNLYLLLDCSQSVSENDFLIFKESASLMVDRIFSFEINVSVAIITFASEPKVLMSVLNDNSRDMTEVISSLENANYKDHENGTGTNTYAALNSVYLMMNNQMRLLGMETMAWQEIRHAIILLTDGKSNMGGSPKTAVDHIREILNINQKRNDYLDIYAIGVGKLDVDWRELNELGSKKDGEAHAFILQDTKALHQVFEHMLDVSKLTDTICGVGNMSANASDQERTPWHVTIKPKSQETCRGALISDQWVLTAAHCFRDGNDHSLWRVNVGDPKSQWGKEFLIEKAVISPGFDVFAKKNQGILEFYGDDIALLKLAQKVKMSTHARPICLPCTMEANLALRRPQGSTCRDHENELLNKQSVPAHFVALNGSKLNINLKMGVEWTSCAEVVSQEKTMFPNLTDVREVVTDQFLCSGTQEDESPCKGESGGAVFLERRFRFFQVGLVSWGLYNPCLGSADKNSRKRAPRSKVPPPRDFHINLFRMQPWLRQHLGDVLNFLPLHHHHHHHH

The next assay has as its target T4, human C2 E433A (human, UniProt P06681 21-752).
T4 sequence: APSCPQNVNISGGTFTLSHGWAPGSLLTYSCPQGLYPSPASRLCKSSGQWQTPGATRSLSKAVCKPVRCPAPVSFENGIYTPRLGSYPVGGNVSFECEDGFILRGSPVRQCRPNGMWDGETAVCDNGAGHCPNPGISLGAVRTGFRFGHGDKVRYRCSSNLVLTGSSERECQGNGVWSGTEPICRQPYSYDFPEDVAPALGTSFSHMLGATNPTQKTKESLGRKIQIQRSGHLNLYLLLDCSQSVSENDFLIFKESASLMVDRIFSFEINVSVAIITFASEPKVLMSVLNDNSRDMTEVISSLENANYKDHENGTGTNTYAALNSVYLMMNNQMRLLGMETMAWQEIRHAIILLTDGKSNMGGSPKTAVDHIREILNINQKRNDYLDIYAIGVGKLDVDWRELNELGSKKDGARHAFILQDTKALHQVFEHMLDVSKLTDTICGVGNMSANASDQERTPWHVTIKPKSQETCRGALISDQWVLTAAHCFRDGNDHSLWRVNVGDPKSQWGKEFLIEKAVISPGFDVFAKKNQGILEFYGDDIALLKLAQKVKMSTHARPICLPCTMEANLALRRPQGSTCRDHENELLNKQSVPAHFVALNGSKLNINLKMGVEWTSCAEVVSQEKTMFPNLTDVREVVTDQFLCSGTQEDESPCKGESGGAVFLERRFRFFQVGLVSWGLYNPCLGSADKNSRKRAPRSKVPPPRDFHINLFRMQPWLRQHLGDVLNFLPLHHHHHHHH

B1: RF16-214 (antibody, V domains shown)
VH: EVQLLESGGGLVQPGGSLRLSCAASGFTFSWYQMMWVRQAPGKGLEWVSRIYPSGGGTAYADSVKGRFTISRDNSKNTLYLQMNSLRAEDTAVYYCARDAGYGDNWGQGTLVTVSS
VL: QSALTQPPSVSVSPGQTASITCSGDKLGEKYASWYQQKAGQSPVMVIYQDRKRPSGIPERFSGSNSGNTATLTISGTQAMDEADYYCQAWDTRAVVFGGGTKLTVLG
In the case of B1, the Fold diff with human C2 A444S is 1 fold; with human C2 E686A, 4 fold; with human C2 R434A, 7 fold; in the assay with human C2 E433A, 1 fold.

The values are drawn from US20220332804A1 (CSL INNOVATION, published 2022).
